Where a chain is given by its changes, count along the chain named. Numbers in names are those of the source. Where “and” joins values, the source holds several entries; their conditions need not be identical. Identical values can stand only once. No end group written: not given here.

In experiment [1] the target is C-terminal RRM domain of Pla1 (Pla1RRM, residues 352-566), purified (S. pombe) (UniProt Q10295). The experiment is described as follows: ITC; MicroCal PEAQ-ITC, 25 °C, 20 mM HEPES pH 7.5, 150 mM NaCl, 2 mM BME; 40-50 µM protein in the cell, 400-500 µM ligand in the syringe; one-binding site model. (ITC needs no label: the signal is the heat of the interaction.)
Experiment [2] has as its target Biotinylated Iss1 residues 30-76 (S. pombe). The experiment is described as follows: BLI; Octet RED96e, 25 °C, 20 mM HEPES pH 7.5, 150 mM NaCl, 2 mM BME, 0.01% Tween-20; biotinylated Red1_(288-345) or Iss1_(30-76) on streptavidin biosensors, 2-fold serial dilution of Pla1FL; global 1:1 fit; apparent. Background: Biolayer interferometry detects binding as a change in optical thickness at a sensor tip.

The target of experiment [3] is T1, Pla1FL (full-length Pla1, residues 1-566) (S. pombe, UniProt Q10295 1-566).
T1 construct: Pla1, canonical poly(A) polymerase, S. pombe, residues 1-566; the His6 tag is non-cleavable; source: E. coli BL21 (DE3) Rosetta2, purified (His-Trap, Resource Q, Superdex 200); not shown: His6, N-terminal, kept
T1 sequence (looked up): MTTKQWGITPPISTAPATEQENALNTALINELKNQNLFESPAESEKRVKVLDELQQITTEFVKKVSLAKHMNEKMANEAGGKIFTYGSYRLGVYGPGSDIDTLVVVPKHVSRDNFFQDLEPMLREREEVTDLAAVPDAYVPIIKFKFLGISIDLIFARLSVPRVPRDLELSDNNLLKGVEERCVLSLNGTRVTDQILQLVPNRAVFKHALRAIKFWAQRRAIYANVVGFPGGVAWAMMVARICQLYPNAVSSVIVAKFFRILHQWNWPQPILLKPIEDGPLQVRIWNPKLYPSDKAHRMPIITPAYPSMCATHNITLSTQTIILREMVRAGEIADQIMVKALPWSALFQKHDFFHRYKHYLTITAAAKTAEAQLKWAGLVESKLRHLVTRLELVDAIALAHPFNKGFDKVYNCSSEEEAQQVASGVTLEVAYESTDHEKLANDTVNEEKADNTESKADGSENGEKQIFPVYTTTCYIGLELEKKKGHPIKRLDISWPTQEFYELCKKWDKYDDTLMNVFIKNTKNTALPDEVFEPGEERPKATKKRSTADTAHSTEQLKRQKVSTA
The experiment is described as follows: BLI; biotinylated Red1 288-345 or Iss1 30-76 immobilised on streptavidin biosensors, 2-fold serial dilution of Pla1FL as analyte; 25 °C; 20 mM HEPES pH 7.5, 150 mM NaCl, 2 mM BME, 0.01% Tween-20; global 1:1 fit. The note with it: both partners purified.

Experiment [4] addresses T2, Red1 residues 288-345 with Val313 mutated to arginine (S. pombe, UniProt Q9UTR8 288-345, Val313 to an arginine residue).
T2 sequence: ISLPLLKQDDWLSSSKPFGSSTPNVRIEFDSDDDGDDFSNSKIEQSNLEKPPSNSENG
The experiment is described as follows: ITC.

For experiment [5], the target named is T3, C-terminal RRM domain of Pla1 (Pla1RRM, residues 352-566), purified (S. pombe, UniProt Q10295 352-566).
T3 construct: canonical poly(A) polymerase Pla1, S. pombe, C-terminal RRM domain, residues 352-566; also called Pla1 CTD; source: E. coli BL21 (DE3) Rosetta2, purified (His-Trap, TEV cleavage, Resource Q, Superdex 200); not shown: His6, N-terminal, cleaved
T3 sequence (looked up): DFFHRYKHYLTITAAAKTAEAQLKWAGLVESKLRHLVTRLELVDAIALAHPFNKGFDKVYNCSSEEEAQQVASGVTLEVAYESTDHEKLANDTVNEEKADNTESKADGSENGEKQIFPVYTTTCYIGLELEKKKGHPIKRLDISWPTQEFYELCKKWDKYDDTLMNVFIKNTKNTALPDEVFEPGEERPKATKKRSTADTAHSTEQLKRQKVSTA
The experiment is described as follows: ITC; MicroCal PEAQ-ITC, 25 °C, 20 mM HEPES pH 7.5, 150 mM NaCl, 2 mM BME; 40-50 µM protein in the cell, 400-500 µM ligand in the syringe; one-binding site model. The note with it: both partners purified.

The target in experiment [6] is T4, Full-length Pla1 (Pla1FL, residues 1-566) with non-cleavable N-terminal His6, purified (S. pombe, UniProt Q10295 1-566).
T4 construct: canonical poly(A) polymerase Pla1, S. pombe, full length, residues 1-566; source: E. coli BL21 (DE3) Rosetta2, purified (His-Trap, Resource Q, Superdex 200); not shown: His6, N-terminal, kept
T4 sequence (looked up): T1 sequence (looked up)
In words: BLI; Octet RED96e, 25 °C, 20 mM HEPES pH 7.5, 150 mM NaCl, 2 mM BME, 0.01% Tween-20; biotinylated Red1_(288-345) or Iss1_(30-76) on streptavidin biosensors, 2-fold serial dilution of Pla1FL; global 1:1 fit; apparent. The conditions noted are these: both partners purified.

In experiment [7] the target is T5, Pla1RRM (C-terminal RRM domain of Pla1, residues 352-566) (S. pombe, UniProt Q10295 352-566).
T5 construct: Pla1, canonical poly(A) polymerase, S. pombe, C-terminal RRM domain, residues 352-566; also called Pla1 RRM domain; Pla1 CTD; source: E. coli BL21 (DE3) Rosetta2, purified (His-Trap, TEV cleavage, Resource Q, Superdex 200); not shown: His6, N-terminal, cleaved
T5 sequence (looked up): T3 sequence (looked up)
The experiment is described as follows: ITC; Red1 or Iss1 construct in the syringe (400-500 µM) titrated into Pla1RRM (wild type or mutant) in the cell (40-50 µM); 25 °C; 20 mM HEPES pH 7.5, 150 mM NaCl, 2 mM BME; one-binding site model; each independent measurement listed. The note with it: both partners purified.

The target in experiment [8] is T5, Pla1RRM (C-terminal RRM domain of Pla1, …). The description is as above. The note with it: both partners purified. This is another data set of the same source.

The molecule “Iss1 residues 30-76, purified (domain or fragment)” displayed a Kd in experiment [1] of 2500 nM.

B1: Full-length Pla1 (Pla1FL, residues 1-566) with non-cleavable N-terminal His6, purified (enzyme)
chain: T1 sequence (looked up)
The koff is the first-order rate constant of dissociation. Usually kon stands for the rate constant with which the complex forms. As to B1, in experiment [2], the Kd came out at 115 nM, the koff was 0.024 s⁻¹ and the kon came to 210000 M⁻¹ s⁻¹.

B2: biotinylated Iss1 30-76 (domain or fragment, S. pombe)
chain: VSNAKSPEQASEESDDSDIEFIIETKPGERAEPLGGSIATLGSTRPS
modifications: also: biotin (EZ-Link NHS-PEG4-Biotin), sites not given here
notes: Iss1, S. pombe, residues 30-76; same protein as Dm12, biotinylated for immobilisation on streptavidin biosensors; also called Iss1_(30-76), biotin-labelled; source: E. coli BL21 (DE3) Rosetta2, purified, biotinylated with EZ-Link NHS-PEG4-Biotin; not shown: His-Thioredoxin, N-terminal, cleaved
Consider B2, for which the dissociation rate constant (koff) in experiment [3] was 0.0242 s⁻¹.

B3: C-terminal RRM domain of Pla1 (Pla1RRM, residues 352-566), purified (domain or fragment)
chain: T3 sequence (looked up)
With B3, the Kd in experiment [4] came to 17900 nM.

B4: Red1 residues 288-345 with Val313 mutated to arginine (domain or fragment, S. pombe, UniProt Q9UTR8 288-345, looked up)
chain: T2 sequence
notes: also called V313R; source: E. coli BL21 (DE3), purified; not shown: GB1, N-terminal, cleaved; His6, C-terminal, kept
As to B4, in experiment [5], the “fold loss in affinity against wild-type Red1_(288-345)” value was about 13 fold.

B5: Biotinylated Red1 residues 288-345 (domain or fragment, S. pombe, UniProt Q9UTR8 288-345, looked up)
chain: T2 sequence with R26V
modifications: also: biotin (EZ-Link NHS-PEG4-Biotin), site not given here
notes: source: E. coli BL21 (DE3), purified, biotinylated; not shown: GB1, N-terminal, cleaved; His6, C-terminal, kept
For B5, in experiment [6], the Kd came out at 59.2 nM, the koff stood at 0.016 s⁻¹ and the kon is 280000 M⁻¹ s⁻¹.

B6: biotinylated Red1 288-345 (domain or fragment, S. pombe)
chain: T2 sequence with R26V
modifications: also: biotin (EZ-Link NHS-PEG4-Biotin), sites not given here
notes: same protein as Dm2, biotinylated for immobilisation on streptavidin biosensors; source: E. coli BL21 (DE3), purified, biotinylated with EZ-Link NHS-PEG4-Biotin; not shown: GB1, N-terminal, cleaved; His6, C-terminal, kept
In experiment [3], B6 had a koff of 0.0163 s⁻¹ and a kon of 275000 M⁻¹ s⁻¹.

B7: Red1 288-345 V313R (domain or fragment, S. pombe, UniProt Q9UTR8 288-345, looked up)
chain: T2 sequence
notes: source: E. coli BL21 (DE3), purified (His-Trap, TEV cleavage, second IMAC, Superdex 75); not shown: GB1, N-terminal, cleaved; His6, C-terminal, kept
Broadly, the stoichiometry N is the number of molecules, sites or subunits per partner or assembly. Regarding B7, in experiment [7], the Kd is 15800 nM and 19900 nM; the “stoichiometry N” value is 1.13 and 0.96.

B8: Red1 288-345 S308A (domain or fragment, S. pombe, UniProt Q9UTR8 288-345, looked up)
chain: T2 sequence with S21A, R26V
notes: also called Red1S308A; source: E. coli BL21 (DE3), purified (His-Trap, TEV cleavage, second IMAC, Superdex 75); not shown: GB1, N-terminal, cleaved; His6, C-terminal, kept
For B8, the Kd in experiment [8] was 1200 ± 300 nM; in experiment [7] it was 1010 nM and 1450 nM. For the same molecule, the “stoichiometry N” value in experiment [7] was 1.04 and 1.05.

B9: Red1 288-345 N311A (domain or fragment, S. pombe, UniProt Q9UTR8 288-345, looked up)
chain: T2 sequence with N24A, R26V
notes: also called Red1N311A; source: E. coli BL21 (DE3), purified (His-Trap, TEV cleavage, second IMAC, Superdex 75); not shown: GB1, N-terminal, cleaved; His6, C-terminal, kept
With B9, in experiment [8], the Kd was 1100 ± 250 nM. In experiment [7], the Kd was 770 nM and 1530 nM; the “stoichiometry N” value is 0.99 and 1.05.

B10: Red1 288-322 (domain or fragment, S. pombe)
chain: ISLPLLKQDDWLSSSKPFGSSTPNVVIEFDSDDDG
notes: as for B7
For the molecule B10, in experiment [7], the Kd was 7300 nM and 8400 nM; the “stoichiometry N” value was 1.31 and 1.3.

B11: Red1 residues 288-322, purified (domain or fragment, S. pombe, UniProt Q9UTR8 288-322, looked up)
chain: B10 chain
notes: as for B7
In the case of B11, the Kd in experiment [5] is 7900 nM.
